Three substances from US20030077693A1 can be followed below.

The target of assay [1] is human transferrin receptor on cells (human) (UniProt P02786). Put plainly: FACS, SK-MEL-28 cells after PI-PLC treatment, staining against untreated stained cells. On the technique in general: In flow cytometry, cells or beads pass a laser one at a time.
For assay [2] the target is unchanged. Description: Pandex cell fluorescence, plate 911, untreated TRVb-1 cells, OKT9 then GAM FITC.
The target is the same in assay [3]. Description: Pandex cell fluorescence, plate 911, acid washed TRVb-1 cells, OKT9 then GAM FITC.
For assay [4] the target is unchanged. Description: FACS, SK-MEL-28 cells after Pronase treatment, staining against untreated stained cells.
For assay [5] the target is unchanged. Description: Pandex cell fluorescence, plate 919, untreated TRVb-1 cells, OKT9 then GAM FITC.
For assay [6] the target is unchanged. Put plainly: Pandex cell fluorescence, plate 919, acid washed TRVb-1 cells, OKT9 then GAM FITC.
Assay [7] has as its target Thy-1 on EL-4 mouse lymphoma cells (mouse) (UniProt P01831). Description: FACS, EL-4 cells after Pronase treatment, staining against untreated stained cells.
Sequence of UniProt P01831 (P01831 20-131): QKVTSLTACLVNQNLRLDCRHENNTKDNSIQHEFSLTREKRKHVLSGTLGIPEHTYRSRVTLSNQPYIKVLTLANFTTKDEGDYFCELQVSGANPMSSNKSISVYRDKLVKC
Assay [8] has the same target. Put plainly: FACS, EL-4 cells after PI-PLC treatment, staining against untreated stained cells.
Assay [9] has as its target transferrin added to TRVb and TRVb-1 cells (30 µg/mL, Example 19) (UniProt P02787). Description: Pandex cell fluorescence, plate 925 (unlabelled Abs then GAM FITC), acid washed TRVb-1 cells + Tf only, stained with L235 (specificity control).
Sequence of UniProt P02787 (P02787 20-698 limits assumed): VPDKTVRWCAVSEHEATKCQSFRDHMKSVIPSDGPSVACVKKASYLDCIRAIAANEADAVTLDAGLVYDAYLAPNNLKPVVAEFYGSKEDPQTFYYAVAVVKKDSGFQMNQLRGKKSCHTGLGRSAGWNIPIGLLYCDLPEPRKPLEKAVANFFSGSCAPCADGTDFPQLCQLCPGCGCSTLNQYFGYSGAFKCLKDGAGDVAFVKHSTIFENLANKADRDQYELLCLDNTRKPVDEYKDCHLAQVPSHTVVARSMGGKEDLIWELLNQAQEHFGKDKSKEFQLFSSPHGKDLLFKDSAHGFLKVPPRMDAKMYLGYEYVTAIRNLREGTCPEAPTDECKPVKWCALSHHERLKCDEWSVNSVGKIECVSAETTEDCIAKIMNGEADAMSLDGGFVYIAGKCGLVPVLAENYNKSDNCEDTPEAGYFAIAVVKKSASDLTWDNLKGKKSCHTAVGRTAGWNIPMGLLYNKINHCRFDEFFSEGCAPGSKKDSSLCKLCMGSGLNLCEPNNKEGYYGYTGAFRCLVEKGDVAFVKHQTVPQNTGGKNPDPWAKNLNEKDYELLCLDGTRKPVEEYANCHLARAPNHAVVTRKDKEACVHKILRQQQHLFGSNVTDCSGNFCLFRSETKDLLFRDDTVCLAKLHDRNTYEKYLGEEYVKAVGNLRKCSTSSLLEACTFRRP
Assay [10] has as its target p97 (melanotransferrin), GPI-anchored, on the cell surface (human) (UniProt P08582). Put plainly: FACS, SK-MEL-28 cells after PI-PLC treatment, staining against untreated stained cells.
Sequence of UniProt P08582 (P08582 20-709): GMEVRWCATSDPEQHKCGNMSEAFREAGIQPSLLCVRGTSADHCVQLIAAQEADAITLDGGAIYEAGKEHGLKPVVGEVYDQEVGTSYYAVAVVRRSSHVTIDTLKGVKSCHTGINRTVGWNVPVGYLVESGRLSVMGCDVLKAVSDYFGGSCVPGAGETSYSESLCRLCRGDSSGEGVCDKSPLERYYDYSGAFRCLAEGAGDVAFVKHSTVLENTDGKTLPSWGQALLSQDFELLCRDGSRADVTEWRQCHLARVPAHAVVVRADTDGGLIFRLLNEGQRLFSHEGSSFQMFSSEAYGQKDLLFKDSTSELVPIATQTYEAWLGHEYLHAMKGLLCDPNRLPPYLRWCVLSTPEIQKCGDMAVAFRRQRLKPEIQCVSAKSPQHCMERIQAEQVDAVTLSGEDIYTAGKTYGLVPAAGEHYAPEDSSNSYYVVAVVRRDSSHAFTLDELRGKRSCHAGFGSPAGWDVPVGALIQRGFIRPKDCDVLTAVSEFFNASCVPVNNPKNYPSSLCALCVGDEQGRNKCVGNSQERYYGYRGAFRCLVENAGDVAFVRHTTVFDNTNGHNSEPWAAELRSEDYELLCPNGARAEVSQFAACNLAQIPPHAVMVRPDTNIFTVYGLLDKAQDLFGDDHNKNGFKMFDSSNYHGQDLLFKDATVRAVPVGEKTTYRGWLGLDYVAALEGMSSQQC
For assay [11] the target is unchanged. Put plainly: FACS, p97aWTBc7 cells after PI-PLC treatment, staining against untreated stained cells.
Assay [12] addresses transferrin added to TRVb and TRVb-1 cells (30 µg/mL, Example 19) (UniProt P02787). Description: Pandex cell fluorescence, plate 925 (unlabelled Abs then GAM FITC), untreated TRVb-1 cells + Tf only, stained with L235 (specificity control).
The target is the same in assay [13]. Put plainly: Pandex cell fluorescence, plate 919, acid washed TRVb-1 cells + Tf only, stained with L235 (specificity control).
In assay [14] the target is p97 (melanotransferrin), GPI-anchored, on the cell surface (human) (UniProt P08582). Description: FACS, Sf9 cells infected with p97 B-2-1, pre-incubated with PI-PLC, L235 + GAM IgG-FITC.
Assay [15] shares this target. Description: cell-based or functional assay.
The target is the same in assay [16]. Put plainly: FACS, SK-MEL-28 cells pre-incubated with PI-PLC (removes p97), L235 + GAM IgG-FITC.
Assay [17] has the same target. Description: FACS, p97aWTBc3 cells after PI-PLC treatment, staining against untreated stained cells.
For assay [18] the target is unchanged. Put plainly: FACS, SK-MEL-28 cells, L235 hybridoma supernatant + GAM IgG-FITC.
The target in assay [19] is transferrin added to TRVb and TRVb-1 cells (30 µg/mL, Example 19) (UniProt P02787). Put plainly: Pandex cell fluorescence, plate 922 (FITC Abs pre-incubated with GAM FITC), acid washed TRVb-1 cells + Tf only, stained with L235 (specificity control).
Assay [20] addresses p97 (melanotransferrin), GPI-anchored, on the cell surface (human) (UniProt P08582). Description: FACS, SK-MEL-28 cells after Pronase treatment, staining against untreated stained cells.
Assay [21] deals with transferrin added to TRVb and TRVb-1 cells (30 µg/mL, Example 19) (UniProt P02787). Put plainly: Pandex cell fluorescence, plate 919, untreated TRVb-1 cells + Tf only, stained with L235 (specificity control).
Assay [22] concerns the target p97 (melanotransferrin), GPI-anchored, on the cell surface (human) (UniProt P08582). Put plainly: FACS, Sf9 cells infected with p97 recombinant virus p97 B-1-1, L235 + GAM IgG-FITC.
Assay [23] shares this target. Put plainly: FACS, Sf9 cells infected with p97 recombinant virus p97 B-2-1, L235 + GAM IgG-FITC.
In assay [24] the target is transferrin added to TRVb and TRVb-1 cells (30 µg/mL, Example 19) (UniProt P02787). Description: Pandex cell fluorescence, plate 922 (FITC Abs pre-incubated with GAM FITC), untreated TRVb-1 cells + Tf only, stained with L235 (specificity control).
The target in assay [25] is p97 (melanotransferrin), GPI-anchored, on the cell surface (human) (UniProt P08582). Description: FACS, Sf9 cells infected with p97 B-1-1, pre-incubated with PI-PLC, L235 + GAM IgG-FITC.

Sequence of UniProt P02786 (P02786 whole entry): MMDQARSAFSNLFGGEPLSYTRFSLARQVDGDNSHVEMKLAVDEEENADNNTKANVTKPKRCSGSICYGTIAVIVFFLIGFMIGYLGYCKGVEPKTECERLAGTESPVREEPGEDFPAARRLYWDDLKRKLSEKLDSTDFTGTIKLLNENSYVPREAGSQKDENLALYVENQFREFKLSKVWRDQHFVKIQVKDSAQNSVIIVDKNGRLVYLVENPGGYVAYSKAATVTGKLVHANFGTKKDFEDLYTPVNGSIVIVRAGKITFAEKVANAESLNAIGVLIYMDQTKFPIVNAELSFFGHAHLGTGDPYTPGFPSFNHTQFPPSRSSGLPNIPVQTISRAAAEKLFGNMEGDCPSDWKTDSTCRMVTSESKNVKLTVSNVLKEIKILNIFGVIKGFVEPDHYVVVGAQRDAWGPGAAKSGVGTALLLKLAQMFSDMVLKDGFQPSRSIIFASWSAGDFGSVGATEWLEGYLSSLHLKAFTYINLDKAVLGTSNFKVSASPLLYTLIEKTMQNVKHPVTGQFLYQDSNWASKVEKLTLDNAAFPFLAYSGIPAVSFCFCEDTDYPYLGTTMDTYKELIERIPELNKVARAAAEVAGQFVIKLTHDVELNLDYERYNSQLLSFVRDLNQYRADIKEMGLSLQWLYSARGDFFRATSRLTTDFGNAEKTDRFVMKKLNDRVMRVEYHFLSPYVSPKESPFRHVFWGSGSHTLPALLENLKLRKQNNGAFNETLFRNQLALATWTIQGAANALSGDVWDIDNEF

As to “OKT9 anti-human transferrin receptor mouse monoclonal antibody”, the results for the Fluorescene Intensity (% of Control) in assay [1] and in assay [4] were 120 % of Control and 15.9 % of Control, respectively. Also, the fluorescence worked out at 4760 in assay [2], 7140 in assay [3], 13600 in [5] and 12500 in assay [6]. In addition, the fluorescence less control in [2] turned out to be 3250; in [3] it was 5060; in [5], 11500; in assay [6] it was 10400.

Regarding T24/37.1 MAb (anti-Thy-1) (antibody), the Fluorescene Intensity (% of Control) in assay [7] was 136 % of Control; in assay [8], 32.5 % of Control.

In the case of L235 anti-p97 mouse monoclonal antibody, the fluorescence was determined as 2710 in [9]; 2520 in assay [12]; 5320 in [13]; 6220 in assay [19]; 5330 in [21]; 7440 in [24]. The fluorescence less control (TRVb) in [9] is 758; in assay [12], 237; in assay [13], 1120; in assay [19], 107; in [21], 0; in assay [24], 0. The Fluorescene Intensity (% of Control) is 10.8 % of Control in assay [10], 7.5 % of Control in assay [11], 6.8 % of Control in assay [17] and 82.6 % of Control in [20]. Moreover, the FLUORESCENCE-converted linear value in assay [14] turned out to be 6.85; in assay [16] it was 4.52; in [18], 128; in assay [22], 112; in assay [23], 97.4; in [25], 5.74. In addition, the internalization of Fe from 59Fe-citrate by p97TRVb cells in assay [15] worked out at 31%.
